Results published in paper PMC9033776, “Chromatin profiling in human neurons reveals aberrant roles for histone acetylation and BET family proteins in schizophrenia” (Nature Communications, 2022).
Where no end group is shown, it is not given here.

Target: T1, Bromo1-linker(GGS)5-Bromo2 of BRD4 (UniProt O60885 54-168; O60885 351-457)
T1 construct: BRD4 bromo1; (GGS)5 linker that replaces the stretch between the two bromodomains; BRD4 bromo2; the limits of the two domains in the fusion are not restated; also called Bromo1-linker-Bromo2 of BRD4; source: E. coli, purified using the same procedure as the single bromodomains
Assay: ITC; 3 mM H2A.Z peptides titrated into 0.3 mM bromodomains; 25 °C; 20 mM Hepes-Na pH 7.5, 100 mM NaCl; One Set of Binding Sites model
Conditions: both partners purified

AGGK(Ac)AGK(Ac)DSGK(Ac)AKTKC (also: cross-linked via C-terminal cysteine) [H2A.ZK4ac7ac11ac peptides cross-linked by a C-terminal cysteine]
fold stronger binding than Bromo1 of BRD4: 6.49 fold
fold stronger binding than Bromo2 of BRD4: 1.7 fold
